These results are taken from US20170306033A1 (Amgen, published 2017).

T1: human PAC1 receptor (human, UniProt P41586 21-468)
T1 sequence: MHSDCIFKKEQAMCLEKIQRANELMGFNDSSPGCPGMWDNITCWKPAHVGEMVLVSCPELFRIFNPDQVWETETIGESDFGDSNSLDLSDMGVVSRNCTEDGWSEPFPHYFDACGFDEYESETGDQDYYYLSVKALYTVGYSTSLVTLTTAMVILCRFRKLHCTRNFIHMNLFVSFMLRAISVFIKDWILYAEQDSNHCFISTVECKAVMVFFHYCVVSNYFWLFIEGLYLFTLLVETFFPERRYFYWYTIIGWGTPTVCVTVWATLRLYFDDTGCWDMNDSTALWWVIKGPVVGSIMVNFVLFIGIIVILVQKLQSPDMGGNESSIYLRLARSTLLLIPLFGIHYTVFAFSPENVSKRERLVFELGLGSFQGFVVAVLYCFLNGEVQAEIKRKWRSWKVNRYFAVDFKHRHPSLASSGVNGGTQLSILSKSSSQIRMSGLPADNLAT

B1: iPS:326661 (bispecific antibody, human IgG2, kappa)
light 1: not shown
heavy 1: QVQLQQSGPGLVKPSQTLSLTCAISGDSVSSNSATWNWIRQSPSRGLEWLGRTYYRSKWSNHYAVSVKSRITINPDTSKSQFSLQLNSVTPEDTAVYYCARGTWKQLWFLDHWGQGTLVTVSSASTKGPSVFPLAPCSRSTSESTAALGCLVKDYFPEPVTVSWNSGALTSGVHTFPAVLQSSGLYSLKSVVTVPSSNFGTQTYTCNVDHKPSNTKVDKTVERKCCVECPPCPAPPVAGPSVFLFPPKPKDTLMISRTPEVTCVVVDVSHEDPEVQFNWYVDGVEVHNAKTKPREEQFNSTFRVVSVLTVVHQDWLNGKEYKCKVSNKGLPAPIEKTISKTKGQPREPQVYTLPPSREEMTKNQVSLTCLVDGFYPSDIAVEWESNGQPENNYDTTPPMLDSDGSFFLYSDLTVDKSRWQQGNVFSCSVMHEALHNHYTQKSLSLSPGK
light 2: EIVLTQSPGTLSLSPGERATLSCRASQSVSSGYLTWYQQKPGQAPRLLIYGASSRATGIPDRFSGSGSGTDFTLTISRLEPEDFAVYYCQQYGNSLSRFGQGTKLEIKRTVAAPSVFIFPPSDEQLKSGTASVVCLLNNFYPREAKVQWKVDNALQSGNSQESVTEQDSKDSTYSLKSTLTLSKADYEKHKVYACEVTHQGLSSPVTKSFNRGEC
heavy 2: QVQLVESGGGVVQPGRSLRLSCAASGFTFSSYGMHWVRQAPGKGLEWVAVIWYDGSNKYYADSVKGRFIISRDKSKNTLYLQMNSLRAEDTAVYYCARAGGIAAAGLYYYYGMDVWGQGTTVTVSSASTKGPSVFPLAPCSRSTSESTAALGCLVKDYFPEPVTVSWNSGALTSGVHTFPAVLQSSGLYSLESVVTVPSSNFGTQTYTCNVDHKPSNTKVDKTVERKCCVECPPCPAPPVAGPSVFLFPPKPKDTLMISRTPEVTCVVVDVSHEDPEVQFNWYVDGVEVHNAKTKPREEQFNSTFRVVSVLTVVHQDWLNGKEYKCKVSNKGLPAPIEKTISKTKGQPREPQVYTLPPSRKKMTKNQVSLTCLVKGFYPSDIAVEWESNGQPENNYKTTPPMLKSDGSFFLYSKLTVDKSRWQQGNVFSCSVMHEALHNHYTQKSLSLSPGK
B2: iPS:327709 (bispecific antibody, human IgG1, kappa, lambda, N297G)
light 1: DIQLTQSPSFLSASVGDRVTITCRASQSIGRSLHWYQQKPGKAPKLLIKYASQSLSGVPSRFSGSGSGTEFTLTISSLQPEDFATYYCHQSSRLPFTFGEGTKVDIKRTVAAPSVFIFPPSDEQLKSGTASVVCLLNNFYPREAKVQWKVDNALQSGNSQESVTEQDSKDSTYSLESTLTLSKADYEKHKVYACEVTHQGLSSPVTKSFNRGEC
heavy 1: not shown
light 2: QSVLTQPPSVSAAPGQKVTISCSGSSSNIGNNYVSWYQQLPGTAPKLLIYDNNKRPSGIPDRFSGSKSGTSATLGITGLQTGDEADYYCGTWDSRLSAVVFGKGTKLTVLGQPKANPTVTLFPPSSEELQANKATLVCLISDFYPGAVTVAWKADGSPVKAGVETTKPSKQSNNKYAAKSYLSLTPEQWKSHRSYSCQVTHEGSTVEKTVAPTECS
heavy 2: QVQLVESGGGVVQPGRSLRLSCAASGFTFSSFGMHWVRQAPGKELEWVAVISFDGSIKYSVDSVKGRFTISRDNSKNTLFLQMNSLRAEDTAVYYCARDRLNYYDSSGYYHYKYYGMAVWGQGTTVTVSSASTKGPSVFPLAPSSKSTSGGTAALGCLVKDYFPEPVTVSWNSGALTSGVHTFPAVLQSSGLYSLESVVTVPSSSLGTQTYICNVNHKPSNTKVDKKVEPKSCDKTHTCPPCPAPELLGGPSVFLFPPKPKDTLMISRTPEVTCVVVDVSHEDPEVKFNWYVDGVEVHNAKTKPCEEQYGSTYRCVSVLTVLHQDWLNGKEYKCKVSNKALPAPIEKTISKAKGQPREPQVYTLPPSRKEMTKNQVSLTCLVKGFYPSDIAVEWESNGQPENNYKTTPPVLKSDGSFFLYSKLTVDKSRWQQGNVFSCSVMHEALHNHYTQKSLSLSPGK
B3: iPS:327729 (bispecific antibody, human IgG1, kappa, lambda, N297G)
light 1: B2 light 1 with E100P
heavy 1: not shown
light 2: B2 light 2 with G75A, K103G
heavy 2: B2 heavy 2 with E44G, E370K
B4: iPS:327700 (bispecific antibody, human IgG1, kappa, lambda, N297G)
light 1: not shown
heavy 1: not shown
light 2: B2 light 2 with A72T, K103G
heavy 2: B2 heavy 2 with E44G, D105E, E370K
B5: iPS:327714 (bispecific antibody, human IgG1, kappa, lambda, N297G)
light 1: EIVLTQSPATLSLSPGERATLSCRASQSVGRSLHWYQQKPGQAPRLLIKYASQSLSGIPARFSGSGSGTDFTLTISSLEPEDFAVYYCHQSSRLPFTFGPGTKVDIKRTVAAPSVFIFPPSDEQLKSGTASVVCLLNNFYPREAKVQWKVDNALQSGNSQESVTEQDSKDSTYSLESTLTLSKADYEKHKVYACEVTHQGLSSPVTKSFNRGEC
heavy 1: not shown
light 2: B2 light 2 with K103G
heavy 2: B2 heavy 2 with E44G, E370K
B6: iPS:327711 (bispecific antibody, human IgG1, kappa, lambda, N297G)
light 1: not shown
heavy 1: not shown
light 2: B2 light 2 with K103G
heavy 2: B2 heavy 2 with E44G, E370K
B7: iPS:327717 (bispecific antibody, human IgG1, kappa, lambda, N297G)
light 1: not shown
heavy 1: not shown
light 2: B2 light 2 with G75A, K103G
heavy 2: B2 heavy 2 with E44G
B8: iPS:327702 (bispecific antibody, human IgG1, kappa, lambda, N297G)
light 1: B5 light 1
heavy 1: not shown
light 2: B2 light 2 with A72T, K103G
heavy 2: B2 heavy 2 with E44G, D105E, E370K
B9: iPS:327712 (bispecific antibody, human IgG1, kappa, lambda, N297G)
light 1: not shown
heavy 1: not shown
light 2: B2 light 2 with K103G
heavy 2: B2 heavy 2 with E44G, E370K
B10: iPS:327704 (bispecific antibody, human IgG1, kappa, lambda, N297G)
light 1: not shown
heavy 1: not shown
light 2: B2 light 2 with K103G
heavy 2: B2 heavy 2 with E44G
B11: iPS:327703 (bispecific antibody, human IgG1, kappa, lambda, N297G)
light 1: not shown
heavy 1: not shown
light 2: B2 light 2 with K103G
heavy 2: B2 heavy 2 with E44G
B12: iPS:327701 (bispecific antibody, human IgG1, kappa, lambda, N297G)
light 1: B2 light 1 with E100P
heavy 1: not shown
light 2: B2 light 2 with A72T, K103G
heavy 2: B2 heavy 2 with E44G, D105E, E370K
B13: iPS:327710 (bispecific antibody, human IgG1, kappa, lambda, N297G)
light 1: B5 light 1 with P100E
heavy 1: not shown
light 2: B2 light 2
heavy 2: B2 heavy 2
B14: iPS:327713 (bispecific antibody, human IgG1, kappa, lambda, N297G)
light 1: B2 light 1 with E100P
heavy 1: not shown
light 2: B2 light 2 with K103G
heavy 2: B2 heavy 2 with E44G, E370K

Positions count from the first letter of the chain named.

Chain of human CGRP receptor (Q16602 23-461 limits assumed, chain 1 of 2): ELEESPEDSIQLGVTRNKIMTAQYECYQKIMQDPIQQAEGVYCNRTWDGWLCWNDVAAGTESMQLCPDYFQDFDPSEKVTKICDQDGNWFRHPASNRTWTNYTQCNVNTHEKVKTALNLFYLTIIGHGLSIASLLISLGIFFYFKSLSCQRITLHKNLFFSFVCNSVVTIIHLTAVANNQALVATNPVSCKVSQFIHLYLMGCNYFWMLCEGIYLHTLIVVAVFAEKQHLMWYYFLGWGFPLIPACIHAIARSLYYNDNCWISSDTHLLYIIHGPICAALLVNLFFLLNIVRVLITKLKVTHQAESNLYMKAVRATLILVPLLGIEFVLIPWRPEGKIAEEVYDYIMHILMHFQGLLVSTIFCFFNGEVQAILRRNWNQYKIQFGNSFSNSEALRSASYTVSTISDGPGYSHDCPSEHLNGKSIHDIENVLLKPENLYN
Chain of human CGRP receptor (O60894 27-148 limits assumed, chain 2 of 2): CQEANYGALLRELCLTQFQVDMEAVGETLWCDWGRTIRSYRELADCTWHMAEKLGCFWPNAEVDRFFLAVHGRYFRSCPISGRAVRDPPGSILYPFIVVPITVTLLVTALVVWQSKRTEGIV

The first test concerns the target T1, human PAC1 receptor. Description: cell-based or functional assay.
As for B1, the “% inhibition of human PAC1” value worked out at 72%.

B2: the “% inhibition of human PAC1” value worked out at 29%.

As for B3, the “% inhibition of human PAC1” value was 85%.

For the molecule B4, the “% inhibition of human PAC1” value worked out at 72%.

Regarding B5, the “% inhibition of human PAC1” value amounted to 104%.

Consider B6, for which the “% inhibition of human PAC1” value stood at 97%.

Turning to B7, the “% inhibition of human PAC1” value was found to be 94%.

In the case of B8, the “% inhibition of human PAC1” value is 86%.

Turning to B9, the “% inhibition of human PAC1” value turned out to be 81%.

Regarding B10, the “% inhibition of human PAC1” value was 71%.

Turning to B11, the “% inhibition of human PAC1” value is 87%.

Turning to B12, the “% inhibition of human PAC1” value turned out to be 41%.

On to B13, for which the “% inhibition of human PAC1” value came to 61%.

Regarding B14, the “% inhibition of human PAC1” value came out at 85%.

The next test has as its target human CGRP receptor (human, UniProt Q16602 23-461; O60894 27-148). Kind of test: cell-based or functional assay.
Take B1: the “% inhibition of human CGRPR” value was determined as 77%.

B2: the “% inhibition of human CGRPR” value came out at 82%.

For the molecule B3, the “% inhibition of human CGRPR” value was determined as 84%.

Take B4: the “% inhibition of human CGRPR” value was 77%.

On to B5, for which the “% inhibition of human CGRPR” value is 94%.

Consider B6, for which the “% inhibition of human CGRPR” value came out at 87%.

As for B7, the “% inhibition of human CGRPR” value amounted to 92%.

Turning to B8, the “% inhibition of human CGRPR” value worked out at 79%.

In the case of B9, the “% inhibition of human CGRPR” value amounted to 89%.

B10: the “% inhibition of human CGRPR” value came to 82%.

With B11, the “% inhibition of human CGRPR” value was determined as 83%.

For B12, the “% inhibition of human CGRPR” value was determined as 73%.

In the case of B13, the “% inhibition of human CGRPR” value was found to be 82%.

B14: the “% inhibition of human CGRPR” value was 89%.
